In patent US20220112288A1 (published 2022):
Where a chain is given by its changes, count along the chain named.

B1: 75110_10O16A (antibody, V domains shown)
VH: EVQLVESGGGLVQPGGSLRLSCAASGFTFSNSDMHWVRQATGKGLEWVSTIGTAGDTYYPGSVKGRFTISRENAKNSLYLQMNSLRAGDTAVYYCARGGLYYYGMDVWGQGTTVTVSS
VL: ENVLTQSPGTLSLSPGERATLSCRASQSVSSSYLAWYQQKPGQAPRLLIYGASSRATGIPDRFSGSGSGTDFTLTISRLEPEDFAVYYCHQFGSSPFTFGPGTKVDIK
notes: Non-clonal AlivaMab Mouse Kappa hybridoma supernatant, captured by anti-mouse IgG Fc (human V regions, mouse Fc); also called 75110_10016A
B2: 75110_14P08A (antibody, V domains shown)
VH: QVQLQESGPGLVKSSETLSLTCTDSGDSIRSYYWNWIRQPAGKGLEWIGRIYASGSTNYNPSLKSRVIMSADTSKNRFSLKLSSVTAADTAVYYCARDGGVGDSLDYWGQGTLVTVSS
VL: DIVMTQTPLSLPVTPGEPASISCRSSQSLLDSDDGNTYLDWYLQKPGQSPQLLIYTLSYRASGVPDRFSGSGSGTDFTLKISRVEAEDVGVYYCMQRIEFPFTFGPGTKVDIK
notes: Tested as non-clonal AlivaMab Mouse Kappa hybridoma supernatant, captured by anti-mouse IgG Fc sensor
B3: 75110_02E22A (antibody, V domains shown)
VH: QVQLQESGPGLVKPSETLSLTCTVSGGSISSFYWSWIRQPAGKGLEWIGRIYTSGSTNYNPSLKSRVTMSVDTSKNQFSLKLSSVTAADTAVYYCARELEKRNYYGMDVWGQGTTVTVSS
VL: DIQMTQSPSSLSASVGDRVTITCQASHDISNYLNWYQQKPGKAPKLLIFDASTLETGVPSRFSGSGSGTYFTFTIRSLQPEDIATYYCQQYDSLPLTFGGGTKVEIK
notes: Tested as antibody purified from AlivaMab Mouse hybridoma supernatant (captured by anti-mouse IgG Fc)
B4: 75110_02I16A (antibody, V domains shown)
VH: QVQLQQWGAGLLKPSETLSLTCDVYGGSFSGYYWTWIRQPPGKGLEWIGEINHSGTTNSNPSLKSRVTISVDTSKSQFSLRLSSVTAADTAVYFCTRELNWFDPWGQGTLVTVSS
VL: DIQMTQSPSSVSASVGDRVTITCRASQDIANWLAWYQQKPGKAPQLLIYAASSLLGGVPSRFSGSGSGADFTLTISSLHPEDFATYYCQQANSFPYTFGQGTKLEIK
notes: as for B3
B5: 75110_02K11A (antibody, V domains shown)
VH: QVQLQESGPGLVKPSQTLSLTCTVSGGSISSGFYYWTWIRQHPGKGLEWIGYISYSGNTYYNPSFKSRLTISVDTSKSQFSLKLSSVTAADTAVYYCARDRPSNFDAFDIWGQGTMVTVSS
VL: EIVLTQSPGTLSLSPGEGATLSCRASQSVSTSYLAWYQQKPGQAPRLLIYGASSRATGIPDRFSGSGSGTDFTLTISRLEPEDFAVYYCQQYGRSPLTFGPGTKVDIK
notes: as for B3
B6: 75110_03B16A (antibody, V domains shown)
VH: EVQLVESGGGLVQPGGSLRLSCAASGFTFSSYWMSWVRQAPGKGLEWVANINEDGSEKNYVDSVKGRFTISRDNAKNSLCLQLNSLRAEDTAVYHCAREGGQWLALDYWGQGTLVTVSS
VL: DIQMTQSPSSVSASVGDRVNITCRASQGIRSWLAWYQQKPGKTPKLLICGASSLQSGVPSRFSGSGSGTDFTLTISSLQPEDFATYYCQQANSFPWTFGQGTTVEIK
notes: as for B3
B7: 75110_03I08A (antibody, V domains shown)
VH: QVQLQESGPGLVKPSETLSLTCTVSGGSISSYYWSWIRQPPGKGLEWIGYIYYSGSTNYNPSLKSRVTISVDTSKNQFSLKLSSVTAADTAVYYCAREGEQWFYGLDVWGQGTTVTVSS
VL: EIVLTQSPGTLSLSPGERATLSCRASQSVSSTYLAWYQQKPGQAPRLLIYGSSSRATGIPDRFSGSGSGTDFTLTISRLEPEDFAVYYCQQYGNSFPITFGQGTRLEIK
notes: as for B3
B8: 75110_04B08A (antibody, V domains shown)
VH: QVQLVESGGGVVQPGRSLRLSCTASGFNFINYGIHWVRQAPGKGLEWVTIIWYDGSKKYYADSVKGRFAISRDNSKNTLYLQMNSLRAEDTAVYYCAREDDWNDGLAYWGQGTLVTVSS
VL: AIQMTQSPSSLSASVGDRVTITCRASQDIRNDLGWYQQKPGKAPNLLIYAASNLQSGVPSRFSGSGSGTDFTLTISSLQPEDFATYYCLQDSNYPRTFGQGTKVEIK
notes: as for B3
B9: 75110_04D20A (antibody, V domains shown)
VH: B3 VH with G26N, S31D, F32Y, V67I, K81E, K101R, R102Y, N103Y, Y104F, M107V
VL: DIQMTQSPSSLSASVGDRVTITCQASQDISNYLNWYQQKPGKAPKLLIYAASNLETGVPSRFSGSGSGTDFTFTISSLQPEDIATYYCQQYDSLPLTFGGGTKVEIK
notes: as for B3
B10: 75110_04G16A (antibody, V domains shown)
VH: B5 VH with G27D, F33Y, T37S, N58S, F65L, D74N, S78N, V87L
VL: B1 VL with N2I, S30G, S32T, S53F, H90Q, F92Y, F97L
notes: as for B3
B11: 75110_04H17A (antibody, V domains shown)
VH: QVQLQESGPGLVKPSETLSLTCTVSGGSISTYYWSWIRQSAGKGLEWIGRIYTSERPNYNPSLKSRVTMSVDTSKNQFSLKLNSVSAADTAVYYCARELERPYYYGMDVWGQGTTVTVSS
VL: B3 VL with I2V, D17G, H27Q, F49Y, D50Y, T53N, Y70D, R76S, I83F, S93N
notes: as for B3
B12: 75110_04P08A (antibody, V domains shown)
VH: QVQLQQWGAGLLKPSETLSLTCAVYGGSLSGYYWSWIRQSPGKGLEWIGEINQSGSTNYNPSLKSRVTISVDTSKDQFSLRLTSVTAADTAVYYCTRVLNWFDPWGRGTLVTVSS
VL: B4 VL with I21L, A30S, Q45K, L55Q, G56S, A69T, H79Q, P80T
notes: as for B3
B13: 75110_05B13A (antibody, V domains shown)
VH: QVLLEQWGAGLLKPSETLSLTCAVYGGSFSGYYWTWIRQPPGKGLEWIGEINHRGSTNYNPSLKSRVTISIDTSKNQFSLKVKSVTAADTAMYYCTRPDSNWFDPWGQGTLVTVSS
VL: B6 VL with N20T, G28D, R30S, S31N, T43A, C49F, G50A, W96L, Q100G, T103K
notes: as for B3
B14: 75110_05E05A (antibody, V domains shown)
VH: QVQLQESGPGLVKPSETLSLTCTVSGGSIGSYYWSWIRQPAGKGLEWIGRIYTSGSTNYNPSLKSRVTMSFDTSKNQFSLKLNSVTAADTAVYYCATDGGVGDSLDYWGQGTLVTVSS
VL: B2 VL with R97H
notes: as for B3
B15: 75110_05E13A (antibody, V domains shown)
VH: EVQLVESGGDLVKPGGSLRLSCAASGFSFSNAWMSWVRQAPGKGLEWVGRVESKTDGGTTDYAAPVKDRFTISRDDSKYTLYLQMNSLKTEDSAVYYCTIGGGFGLELYGFFDYWGQGTLVTVSS
VL: DIQMTQSPSTLSASVGDRVTITCRASQSISSWLAWYQQKPGKAPMLLIYKASSLESGVPSRFSGSGSGTEFTLTISSLQPDDFATYYCLQYNSYYTFGQGTKLEIK
notes: as for B3
B16: 75110_03I08A (antibody, V domains shown)
VH: B7 VH
VL: B7 VL
notes: Tested as clonal hybridoma supernatant of an AlivaMab Mouse Kappa antibody (human variable regions, kappa; detected with anti-mouse Fc)
B17: 75110_03I23A (antibody, V domains shown)
VH: QVQLQESGPGLVKPSETLSLTCTASGGSITSYYWNWIRQPAGKGLEWIGRIYTSGSTNYNPSLKSRVTMSVDTSKNQFSLKLSSVTAADTAVYYCARDPGYSDAFNIWGQGTMVTVSS
VL: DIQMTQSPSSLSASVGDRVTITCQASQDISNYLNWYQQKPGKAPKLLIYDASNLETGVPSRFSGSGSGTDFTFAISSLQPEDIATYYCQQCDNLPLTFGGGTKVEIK
notes: as for B16
B18: 75110_03L12A (antibody, V domains shown)
VH: QVQLQQWGAGLLKPSETLSLTCAVYGGSFSGYYWSWIRQPPGKGLEWIGEINHSGSTNYNPSLKSRVTISVDTSENQFSLTLISVTAADTAVYYCVRLINWFDPWGQGTLVTVSS
VL: B4 VL with A30S, Q45K, Y49F, L55Q, G56S, A69T, H79Q, E81D, K103N, E105G
notes: as for B16
B19: 75110_04B08A (antibody, V domains shown)
VH: B8 VH
VL: B8 VL
notes: as for B16

Experiments:
[1] = target: T1, Recombinant human CD4 (R&D Systems, Cat. 10327-CD) (human, UniProt P01730 26-390, limits assumed); test: BLI (Octet Red384), non-clonal supernatant on AMC sensor, 100 nM human CD4, 1:1 local fit;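 also: hybridoma antibodies captured from supernatant, single CD4 concentration as analyte, association and dissociation phases fitted together, giving single-point kinetic estimates per supernatant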
T1 construct: Bought soluble recombinant protein used as analyte at 100 nM; also called huCD4

[2] = target: T2, Recombinant human CD4 (R&D Systems, Cat. 10327-CD) (human, UniProt P01730 26-390, limits assumed); test: BLI Octet, non-clonal supernatant on AMC sensor, 100 nM human CD4, 1:1 local fit;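 also: Single-concentration kinetics per supernatant, with the 1:1 model fitted across both the association and dissociation phases of the sensorgram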
T2 construct: Bought reagent; also called huCD4

[3] = target: T3, Rhesus macaque CD4-HIS (Acro Biosystems, Cat. CD4-C52H7) (rhesus macaque, UniProt P16003 26-390); test: BLI Octet, mAb on anti-mouse Fc sensor, rhesus CD4-HIS 25-100 nM, 1:1 global fit;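 also: purified antibodies captured at 10 µg/mL, rhesus CD4 analyte run as a three-concentration serial dilution, irrelevant antibody as reference control, one kinetic constant set per antibody from global fitting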
T3 construct: Bought reagent; also called Rhesus CD4; rhesus CD4-HIS; not shown: His tag

human CD4 on human PBMCs = target: T4, human CD4 on human PBMCs (human, UniProt P01730 26-458); test: FACS, clonal hybridoma supernatant on PBMCs
T4 construct: whole, on cells; the CD4-positive gate was set with the control antibodies OKT4 and RPA-T4; also called hCD4

T3 sequence (P16003 26-390 limits assumed): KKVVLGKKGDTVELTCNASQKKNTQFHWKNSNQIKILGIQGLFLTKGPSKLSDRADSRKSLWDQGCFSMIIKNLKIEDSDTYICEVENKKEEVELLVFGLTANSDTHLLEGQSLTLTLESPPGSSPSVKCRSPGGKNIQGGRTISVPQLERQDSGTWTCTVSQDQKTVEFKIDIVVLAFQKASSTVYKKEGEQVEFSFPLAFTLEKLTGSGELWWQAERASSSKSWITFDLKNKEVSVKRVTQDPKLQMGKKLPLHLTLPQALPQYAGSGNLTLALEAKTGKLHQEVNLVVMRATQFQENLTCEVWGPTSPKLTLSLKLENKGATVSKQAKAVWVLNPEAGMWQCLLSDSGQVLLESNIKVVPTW

Row | Binder | Kd [3] [nM] | Response [3] | koff [3] [s⁻¹] | kon [3] [M⁻¹ s⁻¹] | further results
1 | B1 |  |  |  |  | Kd [1]: < 0.001 nM; koff [1]: < 1e-07 s⁻¹; kon [1]: 64800 M⁻¹ s⁻¹
2 | B2 |  |  |  |  | Kd [2]: 7.47 nM; koff [2]: 0.00134 s⁻¹; kon [2]: 179000 M⁻¹ s⁻¹
3 | B3 | 51 | 0.15 | 0.0044 | 87000 | 
4 | B4 | 37 | 0.14 | 0.0092 | 250000 | 
5 | B5 | 26 | 0.13 | 0.0015 | 59000 | 
6 | B6 | 23 | 0.19 | 0.004 | 170000 | 
7 | B7 | 6.1 | 0.04 | 0.00061 | 100000 | 
8 | B8 | 18 | 0.26 | 0.0048 | 270000 | 
9 | B9 | 12 | 0.13 | 0.0017 | 140000 | 
10 | B10 | 2.4 | 0.27 | 0.00022 | 92000 | 
11 | B11 | 1.7 | 0.18 | 0.0002 | 120000 | 
12 | B12 | 60 | 0.12 | 0.0091 | 150000 | 
13 | B13 | 4.7 | 0.14 | 0.002 | 420000 | 
14 | B14 | 2.3 | 0.06 | 4.9e-05 | 21000 | 
15 | B15 | 6.7 | 0.03 | 0.0079 | 1.2e+06 | 
16 | B16 |  |  |  |  | % CD4 Stain (human CD4 on human PBMCs): 17.8%; gMFI of CD4+ (human CD4 on human PBMCs): 26100 gMFI
17 | B17 |  |  |  |  | % CD4 Stain (human CD4 on human PBMCs): 26.2%; gMFI of CD4+ (human CD4 on human PBMCs): 67900 gMFI
18 | B18 |  |  |  |  | % CD4 Stain (human CD4 on human PBMCs): 36.8%; gMFI of CD4+ (human CD4 on human PBMCs): 162000 gMFI
19 | B19 |  |  |  |  | % CD4 Stain (human CD4 on human PBMCs): 40.6%; gMFI of CD4+ (human CD4 on human PBMCs): 246000 gMFI
